This is an account of results in article PMC9207808 (ACS Chemical Biology, 2022).

“And” between values parts separate entries of the source, which are not always exact repeats. Equal entries are not always repeated. Where two headings read alike, the source gives them in different places. No end group written: not given here.

For series [1], the system named is DocH66Y (E. coli P1 Phage). The conditions noted are these: cited from earlier work. The source says: page 23: Table S5. […] Organism Complex Kd (nM) SPR Kd (nM) ITC Reference S. Typhimurium Doc-Phd1-73 0.061 ± 0.019 - This study S. Typhimurium Doc-Phd52-73 (peptide 1) 0.073 ± 0.018 - This study E. coli P1 Phage Doc-Phd1-73 350 - 5 E. coli P1 Phage DocH66Y-Phd1-73 1300 - 5 E. coli P1 Phage Doc-Phd51-73 - 240 5 E. coli P1 Phage DocH66Y-Phd52-73 - 1 6 S23

In series [2] the target is Doc1-122–His6 (DocSTm toxin) (Salmonella typhimurium). As to the kind of experiment: SPR; Biacore S200; Doc-His6 captured on a Series S NTA chip (200-400 RU); peptide as analyte, single-cycle kinetics, six concentrations (3-fold dilutions), 30 uL/min; 22 C; 10 mM HEPES, 500 mM NaCl, 50 uM EDTA, 0.005% TWEEN 20, pH 8.0; kinetic 1:1 fit. Background: SPR reads the build-up and loss of mass on a sensor chip optically.

Series [3] shares this target. The series is described as above. The source holds these as a separate data set.
For series [4] the target is unchanged. The description is as above. The source holds these as a separate data set.
Series [5] shares this target. As to the kind of experiment: SPR; Biacore S200; Doc-His6 captured on NTA chip; peptide as analyte, multi-cycle experiments up to 500 nM; 22 C; 10 mM HEPES, 500 mM NaCl, 50 uM EDTA, 0.005% TWEEN 20, pH 8.0; steady-state 1:1 fit.
For series [6] the target is unchanged. The description is as above. The source holds these as a separate data set.
Series [7] has the same target. Put plainly: SPR; Biacore S200; Doc-His6 captured on a Series S NTA chip (200-400 RU); peptide as analyte, single-cycle kinetics, six concentrations (3-fold dilutions), 30 uL/min; 22 C; 10 mM HEPES, 500 mM NaCl, 50 uM EDTA, 0.005% TWEEN 20, pH 8.0; kinetic 1:1 fit. The source holds these as a separate data set.
Series [8] shares this target. The series is described as above. The source holds these as a separate data set.
Series [9] shares this target. Described as above. This is another data set of the same source.
Series [10] has the same target. Described as above. This is another data set of the same source.
For series [11] the target is unchanged. The series is described as above. The source holds these as a separate data set.
The target is the same in series [12]. Described as above. The source holds these as a separate data set.
Series [13] deals with Doc toxin of Salmonella enterica serovar Typhimurium (DocSTm) (Salmonella enterica serovar Typhimurium). As to the kind of experiment: SPR; DocSTm immobilised on a Series S NTA chip (150 nM, 200-400 RU); analytes in single-cycle kinetics, typically six concentrations, kinetic 1:1 fit; 22 °C; 10 mM HEPES, 500 mM NaCl, 50 μM EDTA, 0.005% TWEEN 20, pH 8.0.
Series [14] concerns the target T1, Doc toxin of Salmonella enterica serovar Typhimurium (DocSTm) (Salmonella enterica serovar Typhimurium, UniProt A0A1C9CWN5 1-126). Put plainly: differential scanning fluorimetry; DocSTm 5 μM with SYPRO Orange, 25 to 95 °C; 50 μM PhdSTm or peptide 1 (Figure 2a); 20 mM K2HPO4, 50 mM (NH4)2SO4, pH 8.0; shift of the melting temperature of DocSTm. Particulars: both partners purified.

Series [15] addresses T1, Doc toxin of Salmonella enterica …. As to the kind of experiment: SPR; DocSTm immobilised on a Series S NTA chip (150 nM, 200-400 RU); analytes in single-cycle kinetics, typically six concentrations, kinetic 1:1 fit; 22 °C; 10 mM HEPES, 500 mM NaCl, 50 μM EDTA, 0.005% TWEEN 20, pH 8.0. The conditions noted are these: both partners purified.
Series [16] deals with T2, Doc (Salmonella Typhimurium).
T2 chain: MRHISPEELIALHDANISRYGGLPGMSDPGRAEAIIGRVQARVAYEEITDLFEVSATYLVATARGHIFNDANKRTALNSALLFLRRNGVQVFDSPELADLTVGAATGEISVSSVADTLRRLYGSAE
Put plainly: SPR.

Series [17] has as its target Doc toxin of Salmonella enterica serovar Typhimurium (DocSTm) (Salmonella enterica serovar Typhimurium). As to the kind of experiment: SPR; DocSTm immobilised on a Series S NTA chip; analytes in multicycle kinetics, kinetic and/or steady-state 1:1 fit (steady-state for peptide 14); 22 °C; 10 mM HEPES, 500 mM NaCl, 50 μM EDTA, 0.005% TWEEN 20, pH 8.0.

What is called Kd is the equilibrium constant for the complex coming apart. “Phd1-73 (E. coli P1 Phage): full-length Phd antitoxin from E. coli P1 phage, literature values”: the dissociation constant Kd in series [1] (ref 5 (ESI), read-out: Kd (nM) SPR) was 1300 nM.

Turning to “Phd52-73 (E. coli P1 Phage): Phd residues 52-73 of E. coli P1 phage, literature value (LDAEFASLFDTLDSTNKELVNR; UniProt Q06253 52-73, looked up, fragment)”, the Kd in series [1] (ref 6 (ESI), read-out: Kd (nM) ITC) is 1 nM.

By koff is commonly meant the rate constant with which the complex falls apart. Lower therefore signals slow dissociation. As a reminder, the kon is a measure of how fast the partners come together. A higher kon goes with fast association. For the molecule peptide 2 (PhdSTm52-73-M52A), in series [2], the Kd is 0.0523 nM and 0.0478 nM and 0.0551 nM; the off-rate (koff) was 5.44e-05 s⁻¹ and 5.13e-05 s⁻¹ and 7.14e-05 s⁻¹; the kon is 1.04e+06 M⁻¹ s⁻¹ and 1.07e+06 M⁻¹ s⁻¹ and 1.3e+06 M⁻¹ s⁻¹. In series [3], the Kd came to 0.052 nM, the koff is 5.9e-05 s⁻¹ and the kon came to 1.14e+06 M⁻¹ s⁻¹.

On to peptide 3 (PhdSTm52-73-D53A), for which, in series [4], the Kd is 0.0121 nM and 0.0166 nM and 0.00992 nM; the koff was 6.65e-05 s⁻¹ and 8.25e-05 s⁻¹ and 4.72e-05 s⁻¹; the kon is 5.48e+06 M⁻¹ s⁻¹ and 4.98e+06 M⁻¹ s⁻¹ and 4.76e+06 M⁻¹ s⁻¹. In [3], this molecule came in with an off-rate (koff) of 6.5e-05 s⁻¹ and a kon of 5.07e+06 M⁻¹ s⁻¹.

Turning to peptide 7 (PhdSTm52-73-I59A), the Kd in series [5] was 19.9 nM; in [6] it was 25.4 nM and 19.4 nM and 15.1 nM.

For the molecule peptide 10 (PhdSTm52-73-H63A), the Kd in [5] was 21.8 nM; in series [6], 12.2 nM and 13.1 nM and 40 nM.

As for peptide 13 (PhdSTm52-73-E66A), in series [7], the dissociation constant Kd was 0.0475 nM and 0.0451 nM and 0.0352 nM; the koff was 7.15e-05 s⁻¹ and 0.000147 s⁻¹ and 0.000118 s⁻¹; the kon was 1.5e+06 M⁻¹ s⁻¹ and 3.26e+06 M⁻¹ s⁻¹ and 3.35e+06 M⁻¹ s⁻¹. In series [3], this molecule displayed a Kd of 0.042 nM, a koff of 0.000112 s⁻¹ and a kon of 2.7e+06 M⁻¹ s⁻¹.

As for peptide 14 (PhdSTm52-73-L67A), the Kd is 21.4 nM in series [5]; 25 nM and 23.9 nM and 15.4 nM in series [6].

As to peptide 15 (PhdSTm52-73-R68A), in series [3], the Kd was 0.115 nM, the koff was 0.000185 s⁻¹ and the on-rate constant (kon) is 1.6e+06 M⁻¹ s⁻¹. Besides, in series [8], the Kd was 0.124 nM and 0.106 nM and 0.112 nM; the koff was 0.000244 s⁻¹ and 0.000166 s⁻¹ and 0.000144 s⁻¹; the kon was 1.95e+06 M⁻¹ s⁻¹ and 1.57e+06 M⁻¹ s⁻¹ and 1.29e+06 M⁻¹ s⁻¹.

In series [3], peptide 16 (PhdSTm52-73-E69A) came in with a Kd of 0.065 nM, a koff of 0.000136 s⁻¹ and a kon of 2.1e+06 M⁻¹ s⁻¹. Moreover, in [9], the Kd is 0.0687 nM and 0.0703 nM and 0.0518 nM; the koff is 0.000151 s⁻¹ and 0.000169 s⁻¹ and 8.97e-05 s⁻¹; the kon was 2.2e+06 M⁻¹ s⁻¹ and 2.37e+06 M⁻¹ s⁻¹ and 1.73e+06 M⁻¹ s⁻¹.

For peptide 17 (PhdSTm52-73-L70A), in [10], the Kd is 2.1 nM and 1.98 nM and 1.02 nM; the koff is 0.00602 s⁻¹ and 0.00634 s⁻¹ and 0.00554 s⁻¹; the kon was 2.87e+06 M⁻¹ s⁻¹ and 3.2e+06 M⁻¹ s⁻¹ and 5.44e+06 M⁻¹ s⁻¹. In [3], this molecule displayed a koff of 0.00597 s⁻¹ and a kon of 3.84e+06 M⁻¹ s⁻¹.

In the case of peptide 18 (PhdSTm52-73-D72A), in series [11], the Kd is 0.0532 nM and 0.0189 nM and 0.0385 nM; the koff is 7.43e-05 s⁻¹ and 5.67e-05 s⁻¹ and 0.00012 s⁻¹; the kon was 1.4e+06 M⁻¹ s⁻¹ and 3.01e+06 M⁻¹ s⁻¹ and 3.12e+06 M⁻¹ s⁻¹. For the same molecule, in [3], the Kd worked out at 0.033 nM, the koff came out at 8.4e-05 s⁻¹ and the kon is 2.51e+06 M⁻¹ s⁻¹.

Regarding peptide 20 (PhdSTm52-71), in series [12], the Kd is 0.447 nM and 0.414 nM and 0.424 nM; the koff is 0.000413 s⁻¹ and 0.000387 s⁻¹ and 0.000378 s⁻¹; the kon was 925000 M⁻¹ s⁻¹ and 934000 M⁻¹ s⁻¹ and 891000 M⁻¹ s⁻¹. In series [3], this molecule yielded a dissociation constant Kd of 0.428 nM, a koff of 0.000393 s⁻¹ and a kon of 917000 M⁻¹ s⁻¹.

peptide 22 (Phd 55-71) showed a Kd in series [13] of 0.347 nM.

In series [13], peptide 23 (Phd 56-70) gave a Kd of 1.98 nM.

B1: peptide 1 (Phd 52-73, Ac-WMDDEFAAIMAVHGNELRELADK-OH) (peptide)
peptide: Ac-WMDDEFAAIMAVHGNELRELADK-OH
notes: tryptophan introduced at the N-terminus for spectrophotometric quantification; not part of Phd; also called wild-type peptide 1; C-terminal Phd peptide; source: synthetic peptide
As for B1, the “ΔTm of DocSTm (DSF)” value in series [14] turned out to be 28.8 ± 0.9 °C. The Kd in series [15] is 0.073 nM.

B2: Phd peptide 22 55-71 (peptide)
chain: EFASLFDTLDSTNKELV
Molecule B2 showed a Kd in [16] of 0.347 nM.

B3: peptide 10 (Phd 52-73 H63A) (peptide)
peptide: Ac-WMDDEFAAIMAVAGNELRELADK
For the molecule B3, in [17], the Kd was 20 nM.

B4: Phd peptide 1 neutralization domain (peptide)
chain: AALDAEFASLFDTLDSTNKELVNR
Regarding B4, binding in series [16] was characterised by a dissociation constant (Kd) of 0.073 nM.

B5: peptide 20 (C-terminally truncated analogue of peptide 1) (peptide)
chain: Ac-WMDDEFAAIMAVHGNELRELA-OH
Turning to B5, the “fold loss in Kd against peptide 1” value in series [15] is about 5 fold.

B6: peptide 14 (Phd 52-73 L67A) (peptide)
peptide: Ac-WMDDEFAAIMAVHGNEARELADK
In the case of B6, the Kd in series [17] was determined as 20 nM.

B7: peptide 7 (Phd 52-73 I59A) (peptide)
peptide: Ac-WMDDEFAAAMAVHGNELRELADK
With B7, the Kd in series [17] is 20 nM.

B8: peptide 21 (N-terminally truncated analogue of peptide 1) (peptide)
chain: Ac-EFAAIMAVHGNELRELADK-OH
As for B8, the “fold loss in Kd against peptide 1” value in [15] was about 5 fold.

B9: Phd peptide 23 56-70 (peptide)
chain: FASLFDTLDSTNKEL
Turning to B9, binding in series [16] was put at a Kd of 1.98 nM.
